# Reference: patent publication EP4806914A1 (Daicel Corporation, dated 2026)
# B1: second anti-AAV-scFv [2] (scFv)
# scFv: QSLEESGGDLVKPGASLTLTCTASGFSFSSNYWMFWVRQAPGKGLEWIAHIYGGSSGSTYYASWAKGRFTISKTSSTTVTLQMTSLTAADTATYFCATVDNGYSDLKLWGPGTLVTVTSGGGGSGGGGSGGGGSELVLTQTADSVEAGVGGTVTIKCQASQSIRNWLSWYQQKPGQPPKLLISRASTLASGVPSRFSGSGSGTEFTLTISDLECDDGATYYCQSSFYADSGEPAFGGGTEVDIKRSAAAGGGSEQKLISEEDLGGGSHHHHHH
# notes: Rabbit-derived scFv from a phage library, purified from E. coli culture supernatant with His MultiTrap FF; also called second anti-AAV full capsid molecule
# Biological target: T1, AAV9 empty capsid (adeno-associated virus serotype 9 (AAV9), Assembled icosahedral particle of about 60 copies of VP1, VP2 and VP3 (nested forms of one cap gene product) with no nuc [CUT])
# T1 construct: Assembled viral particle without nucleic acid, adsorbed to a Maxisorp plate; It has the same capsid protein as the full capsid and differs only in the packaged nucleic acid; also called AAV9 empty capsid sample; AAV empty capsids
# Experiment: ELISA, 0.1 ug AAV9 coated on Maxisorp plate, scFv detected with HRP-labeled anti-His-Tag antibody, A450-A650; reference: blank (BSA)
binder,measurement,value
B1,IE/IB (ratio of ELISA absorbance for the empty capsid sample to that for the blank (BSA)),3.7 ratio
